Test results reported in US20260226500A1.
Values joined by “and” are separate entries in the source; they are usually repeats but may differ in a detail not shown here. Equal entries are not always repeated.

Legend:
[1] = molecular target: P14 TCR (gp33-specific T cell receptor) (mouse)
[2] = molecular target: OT-1 TCR (OVA-restricted T cell receptor) (mouse)
OT-1 TCR (OVA-restricted T cell receptor) (mouse), sequence (chain, as listed by the source limits assumed, chain 1 of 2): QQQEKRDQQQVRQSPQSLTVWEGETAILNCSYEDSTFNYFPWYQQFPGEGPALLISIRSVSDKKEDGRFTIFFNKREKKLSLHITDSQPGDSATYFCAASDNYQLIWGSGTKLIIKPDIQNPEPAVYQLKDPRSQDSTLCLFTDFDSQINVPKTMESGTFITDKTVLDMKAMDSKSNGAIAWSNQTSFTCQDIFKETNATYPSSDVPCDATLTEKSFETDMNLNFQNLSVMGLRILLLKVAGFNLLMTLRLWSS
OT-1 TCR (OVA-restricted T cell receptor) (mouse), sequence (chain, as listed by the source limits assumed, chain 2 of 2): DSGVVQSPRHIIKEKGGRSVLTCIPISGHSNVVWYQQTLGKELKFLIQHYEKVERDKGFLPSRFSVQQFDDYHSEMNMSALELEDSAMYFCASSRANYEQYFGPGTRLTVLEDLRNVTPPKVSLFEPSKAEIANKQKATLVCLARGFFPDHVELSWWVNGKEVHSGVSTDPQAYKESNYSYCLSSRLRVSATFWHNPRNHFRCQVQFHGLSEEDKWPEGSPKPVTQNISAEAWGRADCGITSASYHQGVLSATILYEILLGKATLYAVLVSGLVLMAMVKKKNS

P14 TCR (gp33-specific T cell receptor) (mouse), sequence (chain, as listed by the source limits assumed): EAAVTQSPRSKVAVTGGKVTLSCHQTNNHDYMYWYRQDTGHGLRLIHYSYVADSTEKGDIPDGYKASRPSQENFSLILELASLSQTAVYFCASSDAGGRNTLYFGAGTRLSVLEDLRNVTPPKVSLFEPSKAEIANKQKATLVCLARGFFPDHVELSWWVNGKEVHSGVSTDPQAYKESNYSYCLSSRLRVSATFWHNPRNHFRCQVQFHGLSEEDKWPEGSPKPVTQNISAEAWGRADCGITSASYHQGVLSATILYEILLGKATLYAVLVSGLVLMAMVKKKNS

Substance	percent P14 TCR+ GFP- cells (Q1) (% (unit not given)) [1]	percent OVA Pentamer+ GFP+ cells (Q2) (% (unit not given)) [2]	percent OVA Pentamer+ GFP- cells (Q3, upper left quadrant) (% (unit not given)) [2]
P14 TCR (y-axis stain) (antibody)	89.5 and 96.7 and 36.5		
OVA Pentamer (peptide-MHC)		6.66	26
